Results as given in PMC10397247.

What was measured:
Experiment in all cases: two-hybrid library CCmax;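 further: natural log of median RNA to DNA barcode read ratio; higher means stronger binding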
[1] = molecular target: T1, 4H1352-AA
T1 chain: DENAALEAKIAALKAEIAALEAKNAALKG

[2] = molecular target: T2, 4H1401-AA; settings: mean of both orientations
T2 chain: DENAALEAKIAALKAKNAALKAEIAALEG

[3] = molecular target: T3, 4H1513-AA; settings: mean of both orientations
T3 chain: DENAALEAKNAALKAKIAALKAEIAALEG

[4] = molecular target: T4, 4H1552-AA; settings: mean of both orientations
T4 chain: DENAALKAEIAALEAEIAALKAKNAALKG

[5] = molecular target: T5, 4H1636-AA; settings: mean of both orientations
T5 chain: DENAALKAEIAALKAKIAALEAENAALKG

[6] = molecular target: T6, 4H1867-AA; settings: mean of both orientations
T6 chain: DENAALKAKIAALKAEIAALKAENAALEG

[7] = molecular target: T7, 4H2078-AA; settings: mean of both orientations
T7 chain: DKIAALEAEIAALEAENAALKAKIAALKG

[8] = molecular target: T8, 4H2151-AA; settings: mean of both orientations
T8 chain: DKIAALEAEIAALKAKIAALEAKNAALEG

[9] = molecular target: T9, 4H2165-AA; settings: mean of both orientations
T9 chain: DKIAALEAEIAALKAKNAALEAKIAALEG

[10] = molecular target: T10, 4H2190-AA; settings: mean of both orientations
T10 chain: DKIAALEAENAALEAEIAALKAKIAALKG

[11] = molecular target: T11, 4H2277-AA; settings: mean of both orientations
T11 chain: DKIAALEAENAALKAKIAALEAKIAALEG

[12] = molecular target: T12, 4H234-AA; settings: mean of both orientations
T12 chain: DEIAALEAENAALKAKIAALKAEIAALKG

[13] = molecular target: T13, 4H2354-AA; settings: mean of both orientations
T13 chain: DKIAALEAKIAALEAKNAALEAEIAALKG

[14] = molecular target: T14, 4H2393-AA; settings: mean of both orientations
T14 chain: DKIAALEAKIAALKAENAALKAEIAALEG

[15] = molecular target: T15, 4H2466-AA; settings: mean of both orientations
T15 chain: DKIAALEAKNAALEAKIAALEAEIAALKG

[16] = molecular target: T16, 4H2505-AA; settings: mean of both orientations
T16 chain: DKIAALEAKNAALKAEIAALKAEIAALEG

[17] = molecular target: T17, 4H2575-AA; settings: mean of both orientations
T17 chain: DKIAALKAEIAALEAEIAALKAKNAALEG

[18] = molecular target: T18, 4H2617-AA; settings: mean of both orientations
T18 chain: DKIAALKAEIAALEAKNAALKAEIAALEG

[19] = molecular target: T19, 4H2642-AA; settings: mean of both orientations
T19 chain: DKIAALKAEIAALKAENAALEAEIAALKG

[20] = molecular target: T20, 4H2729-AA; settings: mean of both orientations
T20 chain: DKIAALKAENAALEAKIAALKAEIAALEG

[21] = molecular target: T21, 4H2754-AA; settings: mean of both orientations
T21 chain: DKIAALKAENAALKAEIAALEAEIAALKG

[22] = molecular target: T22, 4H2837-AA; settings: mean of both orientations
T22 chain: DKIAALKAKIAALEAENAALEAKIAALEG

[23] = molecular target: T23, 4H2883-AA; settings: mean of both orientations
T23 chain: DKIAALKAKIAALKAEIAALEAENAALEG

[24] = molecular target: T24, 4H2944-AA; settings: mean of both orientations
T24 chain: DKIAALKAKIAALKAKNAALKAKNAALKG

[25] = molecular target: T25, 4H2949-AA; settings: mean of both orientations
T25 chain: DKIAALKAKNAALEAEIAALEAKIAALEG

[26] = molecular target: T26, 4H3112-AA; settings: mean of both orientations
T26 chain: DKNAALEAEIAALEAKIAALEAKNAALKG

[27] = molecular target: T27, 4H317-AA; settings: mean of both orientations
T27 chain: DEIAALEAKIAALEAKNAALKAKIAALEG

[28] = molecular target: T28, 4H3343-AA; settings: mean of both orientations
T28 chain: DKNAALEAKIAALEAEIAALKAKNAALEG

[29] = molecular target: T29, 4H335-AA; settings: mean of both orientations
T29 chain: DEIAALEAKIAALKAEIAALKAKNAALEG

[30] = molecular target: T30, 4H342-AA; settings: mean of both orientations
T30 chain: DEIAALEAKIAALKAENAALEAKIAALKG

[31] = molecular target: T31, 4H3427-AA; settings: mean of both orientations
T31 chain: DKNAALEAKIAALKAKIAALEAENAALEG

[32] = molecular target: T32, 4H3606-AA; settings: mean of both orientations
T32 chain: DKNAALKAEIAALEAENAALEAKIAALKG

[33] = molecular target: T33, 4H3627-AA; settings: mean of both orientations
T33 chain: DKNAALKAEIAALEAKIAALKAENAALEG

[34] = molecular target: T34, 4H3655-AA; settings: mean of both orientations
T34 chain: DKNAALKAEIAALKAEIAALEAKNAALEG

[35] = molecular target: T35, 4H3718-AA; settings: mean of both orientations
T35 chain: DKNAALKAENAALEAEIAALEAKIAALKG

[36] = molecular target: T36, 4H3844-AA
T36 chain: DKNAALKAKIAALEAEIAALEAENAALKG

[37] = molecular target: T37, 4H3921-AA; settings: mean of both orientations
T37 chain: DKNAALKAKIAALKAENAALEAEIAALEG

[38] = molecular target: T38, 4H429-AA; settings: mean of both orientations
T38 chain: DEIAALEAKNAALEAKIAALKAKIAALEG

[39] = molecular target: T39, 4H454-AA; settings: mean of both orientations
T39 chain: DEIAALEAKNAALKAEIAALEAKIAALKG

[40] = molecular target: T40, 4H48-AA; settings: mean of both orientations
T40 chain: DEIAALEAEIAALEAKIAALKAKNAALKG

[41] = molecular target: T41, 4H566-AA; settings: mean of both orientations
T41 chain: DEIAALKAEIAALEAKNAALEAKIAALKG

[42] = molecular target: T42, 4H605-AA; settings: mean of both orientations
T42 chain: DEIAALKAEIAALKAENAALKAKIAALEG

[43] = molecular target: T43, 4H678-AA
T43 chain: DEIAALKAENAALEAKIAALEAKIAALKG

[44] = molecular target: T44, 4H717-AA; settings: mean of both orientations
T44 chain: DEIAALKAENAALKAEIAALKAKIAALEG

[45] = molecular target: T45, 4H780-AA; settings: mean of both orientations
T45 chain: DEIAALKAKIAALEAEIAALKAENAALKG

[46] = molecular target: T46, 4H794-AA; settings: mean of both orientations
T46 chain: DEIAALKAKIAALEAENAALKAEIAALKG

[47] = molecular target: T47, 4H881-AA; settings: mean of both orientations
T47 chain: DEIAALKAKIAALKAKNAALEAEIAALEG

[48] = molecular target: T48, 4H906-AA; settings: mean of both orientations
T48 chain: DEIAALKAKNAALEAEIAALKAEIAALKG

[49] = molecular target: T49, 4H993-AA; settings: mean of both orientations
T49 chain: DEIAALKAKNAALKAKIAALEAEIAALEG

[50] = molecular target: T50, Q3-AA; settings: mean of both orientations
T50 chain: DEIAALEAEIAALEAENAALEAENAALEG

[51] = molecular target: T51, Q7-AA; settings: mean of both orientations
T51 chain: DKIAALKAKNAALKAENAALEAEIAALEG

[52] = molecular target: T52, Q8-AA; settings: mean of both orientations
T52 chain: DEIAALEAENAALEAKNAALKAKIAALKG

Binder: DENAALEAKIAALKAEIAALEAKNAALKG [4H1352-AA]
- interaction score [1]: 1.38
- interaction score [2]: -1.64
- interaction score [3]: -0.469
- interaction score [4]: 1.47
- interaction score [5]: -1.13
- interaction score [6]: 0.645
- interaction score [7]: -1.18
- interaction score [8]: -0.65
- interaction score [9]: -1.51
- interaction score [10]: -1.16
- interaction score [11]: -1.27
- interaction score [12]: -1.3
- interaction score [13]: -1.74
- interaction score [14]: -1.01
- interaction score [15]: -1.34
- interaction score [16]: -0.788
- interaction score [17]: 1.45
- interaction score [18]: 0.197
- interaction score [19]: -1.13
- interaction score [20]: 0.0997
- interaction score [21]: -0.982
- interaction score [22]: -0.514
- interaction score [23]: 0.183
- interaction score [24]: -0.752
- interaction score [25]: -0.999
- interaction score [26]: 1.11
- interaction score [27]: -0.919
- interaction score [28]: -0.188
- interaction score [29]: 0.334
- interaction score [30]: 1.49
- interaction score [31]: 0.842
- interaction score [32]: -0.743
- interaction score [33]: 2.33
- interaction score [34]: 0.863
- interaction score [35]: 0.714
- interaction score [36]: 1.93
- interaction score [37]: -1.28
- interaction score [38]: -0.813
- interaction score [39]: 1.39
- interaction score [40]: -0.096
- interaction score [41]: -1.51
- interaction score [42]: -1.5
- interaction score [43]: -0.653
- interaction score [44]: -1.46
- interaction score [45]: -1.6
- interaction score [46]: -1.64
- interaction score [47]: -0.885
- interaction score [48]: -1.39
- interaction score [49]: -0.427
- interaction score [50]: -0.583
- interaction score [51]: -1.38
- interaction score [52]: -1.22
